Experimental findings from patent publication US20150344570A1 (published 2015) are described below.

Sequences and labels used below:
T1: FcγRIIa H (human, UniProt P12318 34-217)
T1 construct: extracellular domain; also called FcgRIIa H; 2aH; not shown: His tag at the C terminus
T1 sequence (looked up): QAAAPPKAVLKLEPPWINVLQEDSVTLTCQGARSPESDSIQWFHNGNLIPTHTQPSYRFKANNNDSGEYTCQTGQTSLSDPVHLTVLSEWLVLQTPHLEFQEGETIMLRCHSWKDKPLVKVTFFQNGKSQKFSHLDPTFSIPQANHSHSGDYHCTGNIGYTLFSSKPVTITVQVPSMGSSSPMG

T2: FcγRIIa R (extracellular domain, His tag at the C terminus) (human, UniProt P12318 34-217)
T2 construct: extracellular domain; Soluble analyte in Biacore; also called FcgRIIa R type; 2aR
T2 sequence (looked up): T1 sequence (looked up) with H134R

T3: FcγRIIb (human, UniProt P31994 43-217)
T3 construct: extracellular domain; also called FcgRIIb; 2b; not shown: His tag at the C terminus
T3 sequence (looked up): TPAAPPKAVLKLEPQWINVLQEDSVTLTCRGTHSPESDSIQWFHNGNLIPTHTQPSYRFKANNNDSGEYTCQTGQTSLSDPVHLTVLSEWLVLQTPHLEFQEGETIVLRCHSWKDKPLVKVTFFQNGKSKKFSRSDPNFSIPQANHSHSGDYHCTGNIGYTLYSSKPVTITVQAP

B1: GpH7-A5/GpH7-B3 variant S324_02A/GpL16-k0 (antibody, human IgG1, kappa)
heavy 1: not shown
heavy 2: not shown
light: DIVMTQSPLSLPVTPGEPASISCQASESLVHSNRNTYLHWYLQKPGQSPQLLIYKVSNRFSGVPDRFSGSGSGTDFTLKISRVEAEDVGVYYCSQNTHVPPTFGQGTKVEIERTVAAPSVFIFPPSDEQLKSGTASVVCLLNNFYPREAKVQWKVDNALQSGNSQESVTEQDSKDSTYSLSSTLTLSKADYEKHKVYACEVTHQGLSSPVTKSFNRGEC
notes: He Ab: mutation in the GpH7-B3 H chain only
B2: GpH7-A5/GpH7-B3 variant S324_12R/GpL16-k0 (antibody, human IgG1, kappa)
heavy 1: not shown
heavy 2: not shown
light: B1 light
notes: as for B1
B3: GpH7-A5/GpH7-B3 variant S324_09D/GpL16-k0 (antibody, human IgG1, kappa)
heavy 1: not shown
heavy 2: not shown
light: B1 light
notes: as for B1
B4: GpH7-A5/GpH7-B3 variant S324_18N/GpL16-k0 (antibody, human IgG1, kappa)
heavy 1: not shown
heavy 2: not shown
light: B1 light
notes: as for B1
B5: GpH7-A5/GpH7-B3 variant Y300_13S/GpL16-k0 (antibody, human IgG1, kappa)
heavy 1: not shown
heavy 2: not shown
light: B1 light
notes: as for B1
B6: GpH7-A5/GpH7-B3 variant S324_11K/GpL16-k0 (antibody, human IgG1, kappa)
heavy 1: not shown
heavy 2: not shown
light: B1 light
notes: as for B1
B7: GpH7-A5/GpH7-B3 variant Y300_12R/GpL16-k0 (antibody, human IgG1, kappa)
heavy 1: not shown
heavy 2: not shown
light: B1 light
notes: as for B1
B8: GpH7-A5/GpH7-B3 variant Y300_14T/GpL16-k0 (antibody, human IgG1, kappa)
heavy 1: not shown
heavy 2: not shown
light: B1 light
notes: as for B1
B9: GpH7-A5/GpH7-B3 variant S324_10E/GpL16-k0 (antibody, human IgG1, kappa)
heavy 1: not shown
heavy 2: not shown
light: B1 light
notes: as for B1
B10: GpH7-A5/GpH7-B3 variant S324_16H/GpL16-k0 (antibody, human IgG1, kappa)
heavy 1: not shown
heavy 2: not shown
light: B1 light
notes: as for B1
B11: GpH7-A5/GpH7-B3 variant S324_19Q/GpL16-k0 (antibody, human IgG1, kappa)
heavy 1: not shown
heavy 2: not shown
light: B1 light
notes: as for B1
B12: GpH7-B3 variant T335_15Y/GpL16-k0 (antibody, human IgG1, kappa)
heavy: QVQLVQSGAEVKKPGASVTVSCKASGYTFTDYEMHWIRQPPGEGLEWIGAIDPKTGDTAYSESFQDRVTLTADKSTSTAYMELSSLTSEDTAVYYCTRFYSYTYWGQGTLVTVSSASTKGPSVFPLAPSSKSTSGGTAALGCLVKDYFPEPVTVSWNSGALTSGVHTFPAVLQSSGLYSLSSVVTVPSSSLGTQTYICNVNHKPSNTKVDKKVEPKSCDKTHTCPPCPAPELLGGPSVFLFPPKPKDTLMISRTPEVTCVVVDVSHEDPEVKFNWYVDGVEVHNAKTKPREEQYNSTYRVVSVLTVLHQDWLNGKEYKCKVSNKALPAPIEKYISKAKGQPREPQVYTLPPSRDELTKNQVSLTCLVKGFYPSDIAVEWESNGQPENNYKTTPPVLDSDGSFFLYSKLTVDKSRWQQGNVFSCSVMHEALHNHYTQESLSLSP
light: B1 light
notes: homodimerized; also called Ho Ab
B13: GpH7-B3 variant I332_10E/GpL16-k0 (antibody, human IgG1, kappa)
heavy: not shown
light: B1 light
notes: as for B12
B14: GpH7-B3 variant K326_16H/GpL16-k0 (antibody, human IgG1, kappa)
heavy: not shown
light: B1 light
notes: as for B12
B15: GpH7-B3 variant K334_18N/GpL16-k0 (antibody, human IgG1, kappa)
heavy: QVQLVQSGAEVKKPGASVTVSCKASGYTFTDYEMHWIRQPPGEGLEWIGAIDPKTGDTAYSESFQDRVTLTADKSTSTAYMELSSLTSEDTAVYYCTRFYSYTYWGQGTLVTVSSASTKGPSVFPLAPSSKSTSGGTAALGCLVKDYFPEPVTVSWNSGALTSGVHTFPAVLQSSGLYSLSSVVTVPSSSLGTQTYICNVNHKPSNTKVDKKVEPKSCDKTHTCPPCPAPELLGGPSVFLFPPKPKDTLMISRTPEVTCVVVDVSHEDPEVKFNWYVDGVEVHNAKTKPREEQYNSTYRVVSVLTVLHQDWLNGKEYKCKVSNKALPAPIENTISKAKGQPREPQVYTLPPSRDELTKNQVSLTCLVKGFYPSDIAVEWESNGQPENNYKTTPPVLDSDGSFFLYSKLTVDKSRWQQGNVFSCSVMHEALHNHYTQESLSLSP
light: B1 light
notes: as for B12
B16: GpH7-B3 variant H268_10E/GpL16-k0 (antibody, human IgG1, kappa)
heavy: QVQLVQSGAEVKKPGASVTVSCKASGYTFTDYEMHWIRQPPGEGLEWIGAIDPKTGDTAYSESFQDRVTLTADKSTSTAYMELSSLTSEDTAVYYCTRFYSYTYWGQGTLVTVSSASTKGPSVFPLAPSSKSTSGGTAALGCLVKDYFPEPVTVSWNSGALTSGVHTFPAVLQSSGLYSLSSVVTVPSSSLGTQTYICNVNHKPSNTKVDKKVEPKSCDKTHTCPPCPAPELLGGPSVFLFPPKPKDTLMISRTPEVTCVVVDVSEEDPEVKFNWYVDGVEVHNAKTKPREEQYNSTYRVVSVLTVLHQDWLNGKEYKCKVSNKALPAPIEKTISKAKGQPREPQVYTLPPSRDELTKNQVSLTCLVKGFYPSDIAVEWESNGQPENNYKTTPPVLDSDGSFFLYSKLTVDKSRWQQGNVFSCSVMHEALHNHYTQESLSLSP
light: B1 light
notes: as for B12
B17: GpH7-B3 variant K334_16H/GpL16-k0 (antibody, human IgG1, kappa)
heavy: not shown
light: B1 light
notes: as for B12
B18: GpH7-B3 variant I332_15Y/GpL16-k0 (antibody, human IgG1, kappa)
heavy: not shown
light: B1 light
notes: as for B12
B19: GpH7-B3 variant I332_09D/GpL16-k0 (antibody, human IgG1, kappa)
heavy: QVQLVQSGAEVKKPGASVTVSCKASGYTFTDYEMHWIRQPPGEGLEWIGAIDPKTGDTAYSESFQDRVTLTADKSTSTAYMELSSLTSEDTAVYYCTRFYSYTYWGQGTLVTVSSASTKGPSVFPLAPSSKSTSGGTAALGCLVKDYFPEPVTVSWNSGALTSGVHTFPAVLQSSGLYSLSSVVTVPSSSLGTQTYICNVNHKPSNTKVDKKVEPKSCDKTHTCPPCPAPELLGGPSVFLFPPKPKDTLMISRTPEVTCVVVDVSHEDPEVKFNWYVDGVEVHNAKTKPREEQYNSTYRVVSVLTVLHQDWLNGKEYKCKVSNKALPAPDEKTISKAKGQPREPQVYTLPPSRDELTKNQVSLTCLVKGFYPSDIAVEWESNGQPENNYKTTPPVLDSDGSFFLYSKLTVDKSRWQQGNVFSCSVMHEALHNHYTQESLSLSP
light: B1 light
notes: as for B12
B20: GpH7-B3 variant K334_03V/GpL16-k0 (antibody, human IgG1, kappa)
heavy: not shown
light: B1 light
notes: as for B12
B21: GpH7-B3 variant H268_09D/GpL16-k0 (antibody, human IgG1, kappa)
heavy: not shown
light: B1 light
notes: as for B12
B22: GpH7-B3 variant K326_14T/GpL16-k0 (antibody, human IgG1, kappa)
heavy: not shown
light: B1 light
notes: as for B12
B23: GpH7-B3 variant K326_09D/GpL16-k0 (antibody, human IgG1, kappa)
heavy: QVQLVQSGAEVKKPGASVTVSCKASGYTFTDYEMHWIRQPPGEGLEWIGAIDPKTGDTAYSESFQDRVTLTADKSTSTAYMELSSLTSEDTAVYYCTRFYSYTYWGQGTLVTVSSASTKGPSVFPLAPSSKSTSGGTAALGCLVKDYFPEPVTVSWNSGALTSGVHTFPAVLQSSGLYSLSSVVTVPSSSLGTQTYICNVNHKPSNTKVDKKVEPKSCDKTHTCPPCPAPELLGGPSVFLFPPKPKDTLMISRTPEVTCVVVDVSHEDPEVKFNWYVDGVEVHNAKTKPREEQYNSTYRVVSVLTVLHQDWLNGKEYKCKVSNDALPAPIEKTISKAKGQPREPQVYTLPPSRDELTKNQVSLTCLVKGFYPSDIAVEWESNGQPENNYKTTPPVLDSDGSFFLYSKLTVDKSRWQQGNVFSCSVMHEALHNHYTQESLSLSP
light: B1 light
notes: as for B12
B24: GpH7-B3 variant K326_10E/GpL16-k0 (antibody, human IgG1, kappa)
heavy: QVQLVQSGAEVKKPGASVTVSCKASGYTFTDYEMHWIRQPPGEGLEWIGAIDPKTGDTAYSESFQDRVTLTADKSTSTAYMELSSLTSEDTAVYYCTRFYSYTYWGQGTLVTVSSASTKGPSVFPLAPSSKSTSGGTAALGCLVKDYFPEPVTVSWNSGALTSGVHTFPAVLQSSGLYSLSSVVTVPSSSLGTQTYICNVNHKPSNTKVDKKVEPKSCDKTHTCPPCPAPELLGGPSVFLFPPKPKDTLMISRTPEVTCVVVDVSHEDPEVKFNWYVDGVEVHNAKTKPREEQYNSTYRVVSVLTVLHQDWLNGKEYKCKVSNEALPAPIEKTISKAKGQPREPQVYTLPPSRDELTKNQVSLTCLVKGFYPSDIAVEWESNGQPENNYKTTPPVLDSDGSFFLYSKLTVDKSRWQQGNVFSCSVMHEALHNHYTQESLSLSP
light: B1 light
notes: as for B12
B25: GpH7-B3 variant G236_10E/GpL16-k0 (antibody, human IgG1, kappa)
heavy: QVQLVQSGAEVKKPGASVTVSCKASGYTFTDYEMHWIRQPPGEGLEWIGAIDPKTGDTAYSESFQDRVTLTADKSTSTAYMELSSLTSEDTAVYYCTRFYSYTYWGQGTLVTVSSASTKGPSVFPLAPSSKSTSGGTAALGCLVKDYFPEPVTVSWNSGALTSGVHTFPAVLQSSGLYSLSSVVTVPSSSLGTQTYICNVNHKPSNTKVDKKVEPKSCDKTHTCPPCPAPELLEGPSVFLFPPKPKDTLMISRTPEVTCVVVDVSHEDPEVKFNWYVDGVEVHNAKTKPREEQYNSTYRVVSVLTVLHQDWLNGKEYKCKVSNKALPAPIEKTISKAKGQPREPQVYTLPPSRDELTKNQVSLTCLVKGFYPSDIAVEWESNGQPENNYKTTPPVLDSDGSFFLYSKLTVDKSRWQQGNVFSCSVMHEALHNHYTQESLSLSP
light: B1 light
notes: as for B12
B26: GpH7-B3 variant K334_14T/GpL16-k0 (antibody, human IgG1, kappa)
heavy: not shown
light: B1 light
notes: as for B12
B27: GpH7-B3 variant K326_06M/GpL16-k0 (antibody, human IgG1, kappa)
heavy: not shown
light: B1 light
notes: as for B12
B28: GpH7-B3 variant G236_09D/GpL16-k0 (antibody, human IgG1, kappa)
heavy: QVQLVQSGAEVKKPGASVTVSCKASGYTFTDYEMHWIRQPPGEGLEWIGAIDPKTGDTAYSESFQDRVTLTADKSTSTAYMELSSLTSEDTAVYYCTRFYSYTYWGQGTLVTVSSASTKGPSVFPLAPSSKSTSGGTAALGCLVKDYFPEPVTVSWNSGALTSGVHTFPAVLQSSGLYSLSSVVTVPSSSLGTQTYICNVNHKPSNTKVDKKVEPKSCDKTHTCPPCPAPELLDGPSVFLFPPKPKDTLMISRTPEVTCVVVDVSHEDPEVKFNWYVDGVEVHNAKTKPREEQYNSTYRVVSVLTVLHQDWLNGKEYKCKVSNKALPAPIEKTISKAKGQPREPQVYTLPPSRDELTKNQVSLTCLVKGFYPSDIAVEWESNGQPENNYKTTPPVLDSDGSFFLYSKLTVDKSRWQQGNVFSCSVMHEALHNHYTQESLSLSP
light: B1 light
notes: as for B12
B29: GpH7-B3 variant K334_07I/GpL16-k0 (antibody, human IgG1, kappa)
heavy: not shown
light: B1 light
notes: as for B12
B30: GpH7-B3 variant K334_15Y/GpL16-k0 (antibody, human IgG1, kappa)
heavy: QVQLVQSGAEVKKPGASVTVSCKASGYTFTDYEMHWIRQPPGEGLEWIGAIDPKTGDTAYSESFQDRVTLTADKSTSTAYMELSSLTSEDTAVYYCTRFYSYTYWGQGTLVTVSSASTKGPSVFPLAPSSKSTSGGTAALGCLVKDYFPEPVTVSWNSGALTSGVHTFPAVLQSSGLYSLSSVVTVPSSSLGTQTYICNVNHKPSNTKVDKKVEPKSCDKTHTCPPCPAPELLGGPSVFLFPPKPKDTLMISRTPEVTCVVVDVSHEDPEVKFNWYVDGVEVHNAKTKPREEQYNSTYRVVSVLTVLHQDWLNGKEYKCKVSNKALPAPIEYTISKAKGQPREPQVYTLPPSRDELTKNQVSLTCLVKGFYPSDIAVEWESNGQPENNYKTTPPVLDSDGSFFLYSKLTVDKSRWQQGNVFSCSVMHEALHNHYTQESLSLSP
light: B1 light
notes: as for B12
B31: GpH7-B3 variant K326_19Q/GpL16-k0 (antibody, human IgG1, kappa)
heavy: not shown
light: B1 light
notes: as for B12
B32: GpH7-B3 variant L328_03V/GpL16-k0 (antibody, human IgG1, kappa)
heavy: not shown
light: B1 light
notes: as for B12
B33: GpH7-B3 variant I332_04F/GpL16-k0 (antibody, human IgG1, kappa)
heavy: not shown
light: B1 light
notes: as for B12
B34: GpH7-B3 variant H268_13S/GpL16-k0 (antibody, human IgG1, kappa)
heavy: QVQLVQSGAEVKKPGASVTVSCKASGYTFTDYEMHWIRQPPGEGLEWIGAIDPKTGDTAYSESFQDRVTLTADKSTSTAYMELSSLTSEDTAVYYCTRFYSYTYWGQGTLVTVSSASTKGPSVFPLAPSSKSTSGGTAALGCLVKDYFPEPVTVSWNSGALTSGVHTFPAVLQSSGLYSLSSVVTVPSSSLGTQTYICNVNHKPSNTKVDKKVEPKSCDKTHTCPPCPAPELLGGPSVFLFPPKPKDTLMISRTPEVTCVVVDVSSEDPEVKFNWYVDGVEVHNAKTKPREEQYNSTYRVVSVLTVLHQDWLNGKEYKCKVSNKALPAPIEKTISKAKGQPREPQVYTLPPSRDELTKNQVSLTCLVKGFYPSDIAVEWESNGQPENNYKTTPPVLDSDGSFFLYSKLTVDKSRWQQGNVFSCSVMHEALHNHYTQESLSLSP
light: B1 light
notes: as for B12
B35: GpH7-B3 variant H268_18N/GpL16-k0 (antibody, human IgG1, kappa)
heavy: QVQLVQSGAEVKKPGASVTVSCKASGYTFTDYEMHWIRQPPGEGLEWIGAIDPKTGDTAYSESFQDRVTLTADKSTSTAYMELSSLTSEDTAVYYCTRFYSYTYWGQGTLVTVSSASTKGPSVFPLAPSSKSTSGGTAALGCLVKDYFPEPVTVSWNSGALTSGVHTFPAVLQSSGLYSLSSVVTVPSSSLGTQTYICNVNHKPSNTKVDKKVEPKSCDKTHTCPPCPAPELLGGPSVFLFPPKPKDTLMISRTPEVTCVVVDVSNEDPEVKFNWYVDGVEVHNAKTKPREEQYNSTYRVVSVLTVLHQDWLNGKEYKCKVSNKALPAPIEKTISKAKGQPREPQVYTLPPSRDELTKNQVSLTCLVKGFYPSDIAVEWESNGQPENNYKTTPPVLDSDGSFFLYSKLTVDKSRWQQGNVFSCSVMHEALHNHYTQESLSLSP
light: B1 light
notes: as for B12

Substitutions are numbered along the chain they refer to.

The target of one assay is T1, FcγRIIa H. Nature of the assay: SPR (Biacore); He/Con_2aH divided by He/Con_2b (FcγRIIa H versus FcγRIIb). As to the method:
(§1) The heterodimerized antibodies He Abs in which one of the H chains was introduced with an alteration were assayed for their binding activities to each activating FcγR and inhibitory FcγR according to the method described in Example 4. […] The activating FcγRs in FIGS. 26, 27, 28, and 29 are FcγRIa, FcγRIIa (R), FcγRIIa (H), and FcγRIIIa, respectively.
(§2) Analysis of interaction between objective antibody and the FcγR was carried out using Biacore T100 (GE Healthcare). HBS-EP+ (GE Healthcare) was used as the running buffer, and the measurement temperature was set to 25° C. Chips produced by immobilizing the antigen peptide by the amine coupling method to a Series S Sencor Chip CM5 (GE Healthcare), or alternatively, chips produced by allowing preliminarily biotinylated antigen peptides to interact with and immobilize onto a Series S Sensor Chip SA (certified) (GE Healthcare) were used. Antibodies of interest were captured onto an antigen peptide-immobilized chip, and allowed to interact to each FcγR diluted with running buffer. To regenerate and repeatedly use the chip, the antibodies captured on the chip were washed off by reacting 10 mM glycine-HCl, pH 1.5.
As to B1, the “He_2aH/2b (IIaH/IIb)” value was found to be 1.31 ratio.

For the molecule B2, the “He_2aH/2b (IIaH/IIb)” value worked out at 1.53 ratio. On the same count and under the same terms, as for B3, the figure is 1.23 ratio; as for B4, 1.21 ratio. Same read-out and setting: as for B5, the figure is 1.64 ratio; as for B6, 1.34 ratio. On the same count and under the same terms, as for B7, the figure is 1.34 ratio; as for B8, 1.69 ratio; as for B9, 1.33 ratio. With B10, the “He_2aH/2b (IIaH/IIb)” value is 1.22 ratio. On the same count and under the same terms, as for B11, the figure is 1.44 ratio.

The next assay concerns the target T2, FcγRIIa R (extracellular domain, His …). Nature of the assay: SPR (Biacore), relative binding, control GpH7-B3/GpL16-k0 = 100. The method, then:
as §2
As to B12, the Ho/Con_2aR is 107 % of control. For the molecule B13, the Ho/Con_2aR was 123 % of control. Same read-out and setting: as for B14, the figure is 123 % of control. Take B15: the Ho/Con_2aR is 113 % of control. Still for that read-out and setting: under B16 stands 154 % of control; under B17, 111 % of control; under B18, 111 % of control. Same read-out and setting: under B19 stands 127 % of control. Still for that read-out and setting: as for B20, the figure is 123 % of control; as for B21, 157 % of control.

Take B22: the Ho/Con_2aR was 141 % of control. Take B23: the Ho/Con_2aR was 158 % of control. The same measure, in the same setting: as for B24, the figure is 156 % of control. B25: the Ho/Con_2aR is 140 % of control. On the same count and under the same terms, under B26 stands 117 % of control; under B27, 143 % of control.

With B28, the Ho/Con_2aR was 107 % of control. The same measure, in the same setting: under B29 stands 121 % of control; under B30, 112 % of control. On the same count and under the same terms, under B31 stands 137 % of control; under B32, 116 % of control; under B33, 109 % of control. For B34, the Ho/Con_2aR is 135 % of control. The same measure, in the same setting: under B35 stands 134 % of control.

Another assay has as its target T3, FcγRIIb. Nature of the assay: SPR (Biacore), FcγR passed over captured antibody; binding amount as % of control GpH7-A5/GpH7-B3/GpL16-k0 (=100). As to the method: as §1, §2
Turning to B1, the He/Con_2b was 78.3 relative, control = 100.

As to B2, the He/Con_2b was 63.1 relative, control = 100. For B3, the He/Con_2b is 85.8 relative, control = 100. The same measure, in the same setting: under B4 stands 81.1 relative, control = 100; under B5, 53.9 relative, control = 100; under B6, 68.6 relative, control = 100. In the case of B7, the He/Con_2b was 41.2 relative, control = 100. The same measure, in the same setting: as for B8, the figure is 55.6 relative, control = 100; as for B9, 77.4 relative, control = 100; as for B10, 83.5 relative, control = 100.

Take B11: the He/Con_2b is 66.8 relative, control = 100.

A further assay has as its target T1, FcγRIIa H. Described as above. As to the method:
as §1, §2
B1: the He/Con_2aH was 102 relative, control = 100.

As to B2, the He/Con_2aH is 96.5 relative, control = 100. Still for that read-out and setting: under B3 stands 106 relative, control = 100; under B4, 97.8 relative, control = 100; under B5, 88.1 relative, control = 100. The same measure, in the same setting: as for B6, the figure is 92.2 relative, control = 100.

In the case of B7, the He/Con_2aH is 55.4 relative, control = 100.

Turning to B8, the He/Con_2aH is 94.1 relative, control = 100.

Consider B9, for which the He/Con_2aH was 103 relative, control = 100. Turning to B10, the He/Con_2aH is 102 relative, control = 100.

As for B11, the He/Con_2aH was 96 relative, control = 100.
